The text below walks through data of paper PMC10504559.

The target in series [1] is T1, ABI4 (Arabidopsis thaliana, UniProt A0MES8 1-328). The series is described as follows: EMSA. (In general: In EMSA bound probe runs differently from free probe, usually more slowly.)
The target of series [2] is T2, RGA (Arabidopsis thaliana, UniProt Q9SLH3 1-587).
T2 sequence: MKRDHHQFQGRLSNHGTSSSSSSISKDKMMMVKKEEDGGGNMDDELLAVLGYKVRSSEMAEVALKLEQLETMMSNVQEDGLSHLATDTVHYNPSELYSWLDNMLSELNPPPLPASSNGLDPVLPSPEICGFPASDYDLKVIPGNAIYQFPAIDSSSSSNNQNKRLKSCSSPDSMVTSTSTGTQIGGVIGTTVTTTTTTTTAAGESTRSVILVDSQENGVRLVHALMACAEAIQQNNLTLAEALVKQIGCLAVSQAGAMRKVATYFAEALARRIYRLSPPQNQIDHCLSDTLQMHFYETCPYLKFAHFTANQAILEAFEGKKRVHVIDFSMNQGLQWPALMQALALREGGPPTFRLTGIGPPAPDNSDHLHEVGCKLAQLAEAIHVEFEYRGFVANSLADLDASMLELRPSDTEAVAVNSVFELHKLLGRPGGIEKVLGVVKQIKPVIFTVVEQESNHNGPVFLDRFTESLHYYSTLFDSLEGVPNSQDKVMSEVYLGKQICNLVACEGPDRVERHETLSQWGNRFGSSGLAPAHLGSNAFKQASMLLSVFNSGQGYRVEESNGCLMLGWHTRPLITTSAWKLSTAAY
In words: EMSA.

In series [3] the target is T1, ABI4. In words: competition.
Series [4] deals with T3, HY5 (Arabidopsis thaliana, UniProt O24646 1-168).
T3 sequence: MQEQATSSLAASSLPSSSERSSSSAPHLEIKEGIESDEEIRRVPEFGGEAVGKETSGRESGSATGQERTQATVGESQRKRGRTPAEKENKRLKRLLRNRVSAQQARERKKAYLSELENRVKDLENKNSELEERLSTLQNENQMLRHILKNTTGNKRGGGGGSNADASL
The series is described as follows: EMSA.

T1 sequence (A0MES8 whole entry): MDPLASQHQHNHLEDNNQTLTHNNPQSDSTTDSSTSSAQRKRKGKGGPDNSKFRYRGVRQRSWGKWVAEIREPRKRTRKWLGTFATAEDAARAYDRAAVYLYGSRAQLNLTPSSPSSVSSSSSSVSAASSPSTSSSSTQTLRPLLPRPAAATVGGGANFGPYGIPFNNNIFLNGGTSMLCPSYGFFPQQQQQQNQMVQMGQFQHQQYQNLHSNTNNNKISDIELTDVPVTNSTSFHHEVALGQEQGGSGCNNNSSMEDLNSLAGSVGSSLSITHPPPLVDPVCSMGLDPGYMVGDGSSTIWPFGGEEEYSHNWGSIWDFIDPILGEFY

B1: GA2ox7 promoter CCAC probe (dsDNA)
DNA 1: AAACACCCGACCCAATCTAAAAATCCCACCATAAGCCACCCAATTTATTCTTCTTCTTCA
DNA 2: TGAAGAAGAAGAATAAATTGGGTGGCTTATGGTGGGATTTTTAGATTGGGTCGGGTGTTT
As for B1, the binding result in series [1] is reported as “binds”.

B2: EXP2 promoter probe (dsDNA)
DNA 1: GCGGATATGTAATACGTCCACGTGGCATAAAAGTA
DNA 2: TACTTTTATGCCACGTGGACGTATTACATATCCGC
In the case of B2, the binding result is on record as “binds” in series [1] and “no binding” in series [2].

B3: GA2ox7 promoter CCAC mutant (m) (dsDNA)
DNA 1: AAACACCCGACCCAATCTAAAAATCTATACATAAGTATACCAATTTATTCTTCTTCTTCA
DNA 2: TGAAGAAGAAGAATAAATTGGTATACTTATGTATAGATTTTTAGATTGGGTCGGGTGTTT
As for B3, the binding result in series [3] is “no binding”.

B4: GA2ox7 promoter G-box probe (dsDNA)
DNA 1: TTAGGACACAAACACGTGGTTTTTCATAGCATTGAGAAATTATAATAAAT
DNA 2: ATTTATTATAATTTCTCAATGCTATGAAAAACCACGTGTTTGTGTCCTAA
B4: the binding result in series [4] is “binds”.
